This is an account of results in publication PMC10786891, “Massively parallel profiling of RNA-targeting CRISPR-Cas13d”.

The term Kd denotes the free concentration of one partner at which half of the binding sites on the other are occupied at equilibrium, for simple one-to-one binding. Low readings indicate a tighter complex, high ones a looser complex.

The chains are these.
T1: EsCas13d, nuclease-dead (Eubacterium siraeum, UniProt B0MS50, R295A;H300A;R849A;H854A)
T1 sequence: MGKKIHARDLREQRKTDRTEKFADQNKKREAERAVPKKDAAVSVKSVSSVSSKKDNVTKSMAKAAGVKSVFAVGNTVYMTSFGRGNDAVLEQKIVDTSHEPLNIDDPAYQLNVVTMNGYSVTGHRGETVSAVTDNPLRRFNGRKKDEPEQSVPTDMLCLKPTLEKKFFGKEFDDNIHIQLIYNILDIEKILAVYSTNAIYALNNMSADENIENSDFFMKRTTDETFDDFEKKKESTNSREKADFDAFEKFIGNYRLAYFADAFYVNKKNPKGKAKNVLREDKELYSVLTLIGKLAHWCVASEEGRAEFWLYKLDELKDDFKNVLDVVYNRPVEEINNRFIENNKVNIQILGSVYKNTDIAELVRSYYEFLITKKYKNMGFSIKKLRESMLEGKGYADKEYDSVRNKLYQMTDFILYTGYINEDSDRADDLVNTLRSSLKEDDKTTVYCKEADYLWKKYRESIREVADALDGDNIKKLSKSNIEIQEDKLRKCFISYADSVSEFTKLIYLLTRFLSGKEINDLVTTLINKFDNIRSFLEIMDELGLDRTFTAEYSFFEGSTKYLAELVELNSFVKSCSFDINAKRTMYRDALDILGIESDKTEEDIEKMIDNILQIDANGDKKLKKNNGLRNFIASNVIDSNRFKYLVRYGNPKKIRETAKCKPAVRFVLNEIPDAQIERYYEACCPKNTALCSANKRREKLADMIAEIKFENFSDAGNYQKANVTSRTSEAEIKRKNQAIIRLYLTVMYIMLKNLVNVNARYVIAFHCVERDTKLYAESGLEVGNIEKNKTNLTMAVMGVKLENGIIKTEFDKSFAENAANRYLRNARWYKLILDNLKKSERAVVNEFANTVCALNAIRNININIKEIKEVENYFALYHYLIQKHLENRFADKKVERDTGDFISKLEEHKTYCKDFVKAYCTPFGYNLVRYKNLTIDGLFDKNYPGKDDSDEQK

B1: target 3 insU 3' of 13,insG 3' of 6 (mixed)
RNA 1: CACCCGUGCAAAAUUGCAGGGGUCUAAAACGACCUGAAUAUUUCAGAUCAAA
RNA 2: GGGAAUGGAUCCACAUCUACGAAUUCGUUUUUGAUCUGAUAAUAUUCGAGGUCUGCAGAUCGGAAGAGCACACGU
B2: target 3 insC 3' of 8,insU 3' of 6 (mixed)
RNA 1: B1 RNA 1
RNA 2: B1 RNA 2 with U40A, A42U, U43A, A44U, U45C, G48U
B3: target 3 insG 3' of 11,insU 3' of 3 (mixed)
RNA 1: B1 RNA 1
RNA 2: B1 RNA 2 with U40A, A42G, G48A, A49G, G51U
B4: target 3 G4A,C6A (mixed)
RNA 1: B1 RNA 1
RNA 2: GGGAAUGGAUCCACAUCUACGAAUUCGUUUUUGAUCUGAAAUAUUAAAGUCUGCAGAUCGGAAGAGCACACGU
B5: target 3 U7G,U8G (mixed)
RNA 1: B1 RNA 1
RNA 2: B4 RNA 2 with U44G, U45G, A46C, A48G
B6: target 3 insG 3' of 9,insC 3' of 4 (mixed)
RNA 1: B1 RNA 1
RNA 2: B1 RNA 2 with U40A, A42U, U43A, A44G, G48A, A49G, G50C
B7: target 3 insU 3' of 11,insA 3' of 7 (mixed)
RNA 1: B1 RNA 1
RNA 2: B1 RNA 2 with U40A, A42U, C47A, G48C
B8: target 3 insA 3' of 8,insC 3' of 7 (mixed)
RNA 1: B1 RNA 1
RNA 2: B1 RNA 2 with U40A, A42U, U43A, A44U, U45A, G48C
B9: target 3 G3U,A18G (mixed)
RNA 1: B1 RNA 1
RNA 2: B4 RNA 2 with A34G, A46C, A48G, G49U
B10: target 3 U2G,G14A (mixed)
RNA 1: B1 RNA 1
RNA 2: B4 RNA 2 with G38A, A46C, A48G, U50G
B11: target 3 insA 3' of 21,insU 3' of 6 (mixed)
RNA 1: B1 RNA 1
RNA 2: GGGAAUGGAUCCACAUCUACGAAUUCGUUUUAUGAUCUGAAAUAUUCUAGGUCUGCAGAUCGGAAGAGCACACGU
B12: target 3 G3A,C6U (mixed)
RNA 1: B1 RNA 1
RNA 2: B4 RNA 2 with A46U, A48G, G49A
B13: target 3 insA 3' of 22,insA 3' of 6 (mixed)
RNA 1: B1 RNA 1
RNA 2: B11 RNA 2 with U31A, A32U, U48A
B14: target 3 G3U,U22C (mixed)
RNA 1: B1 RNA 1
RNA 2: B4 RNA 2 with U30C, A46C, A48G, G49U
B15: target 3 insA 3' of 6,insC 3' of 2 (mixed)
RNA 1: B1 RNA 1
RNA 2: GGGAAUGGAUCCACAUCUACGAAUUCGUUUUUGAUCUGAAAUAUUCAAGGUCCUGCAGAUCGGAAGAGCACACGU
B16: target 3 U2G,U22A (mixed)
RNA 1: B1 RNA 1
RNA 2: B4 RNA 2 with U30A, A46C, A48G, U50G
B17: target 3 U8A,U22A (mixed)
RNA 1: B1 RNA 1
RNA 2: B4 RNA 2 with U30A, U44A, A46C, A48G
B18: target 3 insG 3' of 1 (mixed)
RNA 1: B1 RNA 1
RNA 2: GGGAAUGGAUCCACAUCUACGAAUUCGUUUUUGAUCUGAAAUAUUCAGGUCGUGCAGAUCGGAAGAGCACACGU
B19: target 3 insU 3' of 22,insC 3' of 2 (mixed)
RNA 1: B1 RNA 1
RNA 2: B11 RNA 2 with A32U, U48A, A49G, G51U, U52C
B20: target 3 A18G,U21A (mixed)
RNA 1: B1 RNA 1
RNA 2: B4 RNA 2 with U31A, A34G, A46C, A48G
B21: target 3 insA 3' of 3 (mixed)
RNA 1: B1 RNA 1
RNA 2: B18 RNA 2 with U50A, C51U, G52C
B22: target 3 insA 3' of 21,insG 3' of 5 (mixed)
RNA 1: B1 RNA 1
RNA 2: B11 RNA 2 with U48A, A49G
B23: target 3 insU 3' of 22,insU 3' of 1 (mixed)
RNA 1: B1 RNA 1
RNA 2: B11 RNA 2 with A32U, U48A, A49G, G51U, U52C, C53U
B24: target 1 C2G,A18U (mixed)
RNA 1: CACCCGUGCAAAAAUGCAGGGGUCUAAAACUGAGCGGAUAACCUCUCUAUGG
RNA 2: GGGAAUGGAUCCACAUCUACGAAUUCGUACCAUUGAGAGGUUAUCCGCUGACCGAGAUCGGAAGAGCACACGU
B25: target 1 insA 3' of 22,insA 3' of 19 (mixed)
RNA 1: B24 RNA 1
RNA 2: GGGAAUGGAUCCACAUCUACGAAUUCGUACACAUAAGAGAGGUUAUCCGCUCACCGAGAUCGGAAGAGCACACGU
B26: target 1 insC 3' of 22,insG 3' of 19 (mixed)
RNA 1: B24 RNA 1
RNA 2: B25 RNA 2 with A31C, A35G
B27: target 1 A1U,G17U (mixed)
RNA 1: B24 RNA 1
RNA 2: B24 RNA 2 with U34A, G35U, G50C, A51U

Substitutions are numbered along the chain they refer to. Names and notes keep the numbering of the source.

The target in this data set is T1, EsCas13d, nuclease-dead. In words: crRNA (strand 1, pre-loaded); Mg2+; 40 mM Tris-HCl pH 7.5, 150 mM NaCl, 6 mM MgCl2, 1 mM DTT, 0.1% Tween-20, 0.2 mg/ml BSA; 25 C; 10 min per concentration, then washed. The settings on record: tags: His6-TwinStrep-SUMO cleaved; N-terminal SNAP kept (SNAP-Surface 488); label: 3' end held by stalled T7 RNA polymerase.
Molecule B1 showed a Kd of 88 ± 24.5 nM.
B2: the affinity, expressed as Kd, was 78 ± 11.5 nM.
The value for B3 was 96 ± 21.5 nM; that for B4 was 23.8 ± 2.65 nM.
In the case of B5, the Kd amounted to 48.5 ± 9 nM. This Kd is about 2-fold higher than that of the molecule before.
The same measure for B6: around 102 nM.
Molecule B7 had a dissociation constant (Kd) of 100 ± 20.5 nM.
In turn, B8 had a Kd of 67.5 ± 8 nM.
Molecule B9 registered a Kd of 34.4 ± 3.25 nM. Against the preceding molecule, the Kd is about 2-fold lower.
The same measure for B10: 106 ± 42 nM.
In turn, B11 came in with a Kd of 84 ± 25.5 nM.
The molecule B12 yielded a Kd of 42 ± 5 nM.
B13: the Kd worked out at 11.1 ± 0.85 nM. This Kd lies about 3.8-fold lower than the previous one.
The same measure for B14: 28.4 ± 5.25 nM; for B15: 35 ± 9 nM.
B16 displayed a Kd of 25.6 ± 2.5 nM.
The same measure for B17: 110 ± 38.5 nM; for B18: 44.5 ± 9.5 nM; for B19: 76.5 ± 24.5 nM.
B20: the Kd amounted to 57.5 ± 10 nM.
As to B21, binding was characterised by a dissociation constant (Kd) of 25.1 ± 3.45 nM.
The molecule B22 returned a Kd of 71 ± 33.5 nM. This Kd lies about 2.8-fold higher than the previous one.
Regarding B23, binding was put at a Kd of 77.5 ± 17.5 nM.
B24 displayed a Kd of 17 ± 1.7 nM.
The value for B25 was 38 ± 4 nM.
The same measure for B26: 64 ± 15 nM; for B27: 18.8 ± 1.5 nM.
